From patent publication US11780902B1, “Receptor/histidine kinase fusion constructs and uses thereof” (priority 2018, dated 2023)

Tests used:
GFP reporter gene = experiment: Maltose / aspartate induction of Tar HK fusions, GFP reporter gene fluorescence, FACS screen; assay type: cell-based, E. coli; conditions: for maltose inducibility: maltose via MBP
[1] = cited from earlier work
[2] = system: PhoB responsive promoter driving a β-galactosidase reporter gene; conditions: E. coli BW23423; maltose control vs ribose; X-Gal; functional = off without ligand, on with ligand
[3] = system: plant pho promoter: luciferase reporter gene; experiment: Luciferase reporter in transgenic Arabidopsis, circuit RBP→TrzPhoR→PhoBVP64, exposure to ribose; assay type: in vivo; conditions: 0 hours vs 24 hours after exposure to ribose
Protocol: FIG. 9A and FIG. 9B. Imaging of a luciferase gene reporter in transgenic Arabidopsis with the signaling circuit Ribose Binding Protein (RBP)→TrzPhoR→PhoBVP64 activating a plant pho promoter: luciferase reporter gene FIG. 9A. Four transgenic Arabidopsis lines at 0 hours (no exposure to ribose) top panel and 24 hours after exposure to ribose bottom panel. FIG. 9B. Quantification of luciferase activity from FIG. 9A.
Because the ground state of a histidine kinase is such that the kinase is active, “kinase on” and the predominate signaling phenotype seen in non-functional fusions is “kinase on,” the inventors reasoned that the valine at the D position is essential in maintaining the “kinase off” state in the absence of ligand dependent signaling. Fusions where the D position valine is replaced by alanine, glycine (the two hydrophobic amino acids smaller than valine) or a methionine (the D position residue of PhoR) results in constitutive activation (FIG. 8). E. coli has 10 HKs, including EnvZ, with HAMP domains adjacent to the HK coiled coil (FIG. 8). EnvZ is the only HK with a valine in the A/D position. There are 4 other amino acids, glutamate, isoleucine, leucine and threonine that occupy the A/D position in the 9 other E. coli HKs with a HAMP/HK coiled coil A/D overlap. […]

[4] = system: PhoB responsive promoter driving a β-galactosidase reporter gene; assay type: cell-based, E. coli

B1: TazPhoR: TrzPhoR fusion with the Tar chemotactic receptor replacing the Trg chemotactic receptor, SEQ ID NO:16 (protein)
chain: MKLLSKTFLILTLTFFFFGIALAKMINRIRVVTLLVMVLGVFALLQLISGSLFFSSLHHSQKSFVVSNQLREQQGELTSTWDLMLQTRINLSRSAVRMMMDSSNQQSNAKVELLDSARKTLAQAATHYKKFKSMAPLPEMVATSRNIDEKYKNYYTALTELIDYLDYGNTGAYFAQPTQGMQNAMGEAFAQYALSSEKLYRDIVTDNADDYRFAQWQLAVIALVVVLILLVAWYGIRRMLLTPLAKIIAHIREIAGGNLANTLTIDGRSEMGDLAQSVSHMAAGVKQLEGARRNFFANVSHELRTPLTVLQGYLEMMNEQPLEGAVREKALHTMREQTQRMEGLVKQLLTLSKIEAAPTHLLNEKVDVPMMLRVVEREAQTLSQKKQTFTFEIDNGLKVSGNEDQLRSAISNLVYNAVNHTPEGTHITVRWQRVPHGAEFSVEDNGPGIAPEHIPRLTERFYRVDKARSRQTGGSGLGLAIVKHAVNHHESRLNIESTVGKGTRFSFVIPERLIAKNSD
modifications: Fusion protein
Q: What does the source list for B1?
A: aspartate inducibility (GFP reporter gene): aspartate inducibility of both fusions was observed; maltose inducibility (GFP reporter gene): no maltose inducibility

B2: TazPhoR 86: Maltose inducible directed evolution variant of TazPhoR, SEQ ID NO:20 (protein)
chain: MKLLSKTFLILTLTFFFFGIALAKMINRIRVVTLLVMVLGVFALLQLISGSLFFSSLHHSQKSFVVSNQLREQQGELTSTWDLMLQTRINLSRSAVRMMMDSSNQQSNAKVELLDSARKTLAQAATHYKKFKSMAPLPEMVATSRNIDEKYKNYYTALTELIDYLDYGNTGAYFAQPTQGMQNAMGEAFAQYALSSEKLYRDIVTDNADDYRFAQWQLAVIALVVVLILLVAWYGIRRMLLTPLAKIIAHIREIAGGNLANTLTIDGRSEMGDLAQSVSHMAAGVKQLRVWRRNFFANVSHELRTPLTVLQGYLEMMNEQPLEGAVREKALHTMREQTQRMEGLVKQLLTLSKIEAAPTHLLNEKVDVPMMLRVVEREAQTLSQKKQTFTFEIDNGLKVSGNEDQLRSAISNLVYNAVNHTPEGTHITVRWQRVPHGAEFSVEDNGPGIAPEHIPRLTERFYRVDKARSRQTGGSGLGLAIVKHAVNHHESRLNIESTVGKGTRFSFVIPERLIAKNSD
modifications: Fusion protein
Q: For B2, which maltose inducibility (GFP reporter gene) is on record?
A: Its maltose inducibility is “Maltose inducible”.

B3: Tac8: TrzChim3-8 with the chemotactic receptor Tar replacing the chemotactic receptor Trg, SEQ ID NO:22 (protein)
chain: MINRIRVVTLLVMVLGVFALLQLISGSLFFSSLHHSQKSFVVSNQLREQQGELTSTWDLMLQTRINLSRSAVRMMMDSSNQQSNAKVELLDSARKTLAQAATHYKKFKSMAPLPEMVATSRNIDEKYKNYYTALTELIDYLDYGNTGAYFAQPTQGMQNAMGERFAQYALSSEKLYRDIVTDNADDYRFAQWQLAVIALVVVLILLVAWYGIRRMLLTPLAKIIAHIREIAGGNLANTLTIDGRSEMGDLAQSVSHMAAGVKQLRGVRTLLMAGVSHDLRTPLTVLQGYLEMMNEQPLEGAVREKALHTMREQTQRMNAIIEQFIDYLRTGQEMPMEMADLNAVLGEVIAAESGYEREIETALYPGSIEVKMHPLSIKRAVANMVVNAARYGNGWIKVSSGTEPNRAWFQVEDDGPGIAPEQRKHLFQPFVRGDSARTISGTGLGLAIVQRIVDNHNGMLELGTSERGGLSIRAWLPVPVTRAQGTTKEG
modifications: Fusion protein
Q: Which aspartate inducibility (GFP reporter gene) does the source give for B3 here?
A: Its aspartate inducibility is “aspartate inducibility of both fusions was observed”.

Q: What about the maltose inducibility (GFP reporter gene) of the same molecule?
A: Its maltose inducibility is “no maltose inducibility”.

B4: Tac40: Maltose inducible directed evolution variant of Tac8, SEQ ID NO:24 (protein)
chain: MINRIRVVTLLVMVLGVFALLQLISGSLFFSSLHHSQKSFVVSNQLREQQGELTSTWDLMLQTRINLSRSAVRMMMDSSNQQSNAKVELLDSARKTLAQAATHYKKFKSMAPLPEMVATSRNIDEKYKNYYTALTELIDYLDYGNTGAYFAQPTQGMQNAMGERFAQYALSSEKLYRDIVTDNADDYRFAQWQLAVIALVVVLILLVAWYGIRRMLLTPLAKIIAHIREIAGGNLANTLTIDGRSEMGDLAQSVSHMAAGVKQLVWRRTLLMAGVSHDLRTPLTVLQGYLEMMNEQPLEGAVREKALHTMREQTQRMNAIIEQFIDYLRTGQEMPMEMADLNAVLGEVIAAESGYEREIETALYPGSIEVKMHPLSIKRAVANMVVNAARYGNGWIKVSSGTEPNRAWFQVEDDGPGIAPEQRKHLFQPFVRGDSARTISGTGLGLAIVQRIVDNHNGMLELGTSERGGLSIRAWLPVPVTRAQGTTKEG
modifications: Fusion protein
Q: For B4, which maltose inducibility (GFP reporter gene) is on record?
A: The maltose inducibility was “Maltose inducible”.

B5: TazPhoR 61: Maltose inducible directed evolution variant of TazPhoR, SEQ ID NO:18 (protein)
chain: MKLLSKTFLILTLTFFFFGIALAKMINRIRVVTLLVMVLGVFALLQLISGSLFFSSLHHSQKSFVVSNQLREQQGELTSTWDLMLQTRINLSRSAVRMMMDSSNQQSNAKVELLDSARKTLAQAATHYKKFKSMAPLPEMVATSRNIDEKYKNYYTALTELIDYLDYGNTGAYFAQPTQGMQNAMGEAFAQYALSSEKLYRDIVTDNADDYRFAQWQLAVIALVVVLILLVAWYGIRRMLLTPLAKIIAHIREIAGGNLANTLTIDGRSEMGDLAQSVSHMAAGVKQLRRNFFANVSHELRTPLTVLQGYLEMMNEQPLEGAVREKALHTMREQTQRMEGLVKQLLTLSKIEAAPTHLLNEKVDVPMMLRVVEREAQTLSQKKQTFTFEIDNGLKVSGNEDQLRSAISNLVYNAVNHTPEGTHITVRWQRVPHGAEFSVEDNGPGIAPEHIPRLTERFYRVDKARSRQTGGSGLGLAIVKHAVNHHESRLNIESTVGKGTRFSFVIPERLIAKNSD
modifications: Fusion protein
Q: With B5 as the molecule, how does the maltose inducibility (GFP reporter gene) read?
A: The maltose inducibility was “Maltose inducible”.

B6: Taz: Tar chemotactic receptor fused to EnvZ histidine kinase at conserved HAMP domain, SEQ ID NO:38 (protein)
chain: MINRIRVVTLLVMVLGVFALLQLISGSLFFSSLHHSQKSFVVSNQLREQQGELTSTWDLMLQTRINLSRSAVRMMMDSSNQQSNAKVELLDSARKTLAQAATHYKKFKSMAPLPEMVATSRNIDEKYKNYYTALTELIDYLDYGNTGAYFAQPTQGMQNAMGERFAQYALSSEKLYRDIVTDNADDYRFAQWQLAVIALVVVLILLVAWYGIRRMLLTPLAKIIAHIREIAGGNLANTLTIDGRSEMGDLAQSVSHMAAGVKQLADDRTLLMAGVSHDLRTPLTRIRLATEMMSEQDGYLAESINKDIEECNAIIEQFIDYLRTGQEMPMEMADLNAVLGEVIAAESGYEREIETALYPGSIEVKMHPLSIKRAVANMVVNAARYGNGWIKVSSGTEPNRAWFQVEDDGPGIAPEQRKHLFQPFVRGDSARTISGTGLGLAIVQRIVDNHNGMLELGTSERGGLSIRAWLPVPVTRAQGTTKEG
modifications: Fusion protein
Q: For B6, which induction by aspartate ([1]; aspartate) is on record?
A: Its induction by aspartate is “retains the ability to be induced by aspartate”.

Q: What about the response to maltose ([1]; maltose) of the same molecule?
A: The response to maltose was “no longer shows a response to maltose”.

B7: TrzPhoR: coiled coil based fusion of Trz (Trg chemotactic receptor/EnvZ histidine kinase fusion) to PhoR histidine kinase, SEQ ID NO:2 (protein)
chain: MNTTPSQRLGFLHHIRLVPLFACILGGILVLFALSSALAGYFLWQADRDQRDVTAEIEIRTGLANSSDFLRSARINMIQAGAASRIAEMEAMKRNIAQAESEIKQSQQGYRAYQNRPVKTPADEALDTELNQRFQAYITGMQPMLKYAKNGMFEAIINHESEQIRPLDNAYTDILNKAVKIRSTRANQLAELAHQRTRLGGMFMIGAFVLALVMTLITFMVLRRIVIRPLQHAAQRIEKIASGDLTMNDEPAGRNEIGRLSRHLQHMAAGVKQLEGARRNFFANVSHELRTPLTVLQGYLEMMNEQPLEGAVREKALHTMREQTQRMEGLVKQLLTLSKIEAAPTHLLNEKVDVPMMLRVVEREAQTLSQKKQTFTFEIDNGLKVSGNEDQLRSAISNLVYNAVNHTPEGTHITVRWQRVPHGAEFSVEDNGPGIAPEHIPRLTERFYRVDKARSRQTGGSGLGLAIVKHAVNHHESRLNIESTVGKGTRFSFVIPERLIAKNSD
Q: For B7, which “signaling phenotype of the fusion (ribose inducible β-galactosidase activity)” value [2] is on record?
A: The value was “functional”.

Q: And the “function in the plant detector system (luciferase activity)” value [3]?
A: Its value is “highly functional”.

B8: PhoQTrzPhoR: Mg^2+ responsive PhoQ receptor fused to TrzPhoR at the D position, SEQ ID NO:40 (protein)
chain: MPGRSKWYRRWRPRSLQARQLLAASLSLVAFLALAGYALDVAFADTAEKNLRERLKNYASAYAANIDFVRDGSLYIGGQPPDPRFDVPGGGLYVEVVRPDESWTSMSAEGPNIPHGRMLEPRQEEFIGPLEMTQIDGSLGQLYRYGLGVSYVEREHGGEIPYTIYVMEDARSMGAQLRVFRGAVWFYLGSAGVVLLVLQAFILQWSLRPLRRVINELTKVQRGEIQRMSEQHPRELEPLTDSINAFIESVKQLEGARRNFFANVSHELRTPLTVLQGYLEMMNEQPLEGAVREKALHTMREQTQRMEGLVKQLLTLSKIEAAPTHLLNEKVDVPMMLRVVEREAQTLSQKKQTFTFEIDNGLKVSGNEDQLRSAISNLVYNAVNHTPEGTHITVRWQRVPHGAEFSVEDNGPGIAPEHIPRLTERFYRVDKARSRQTGGSGLGLAIVKHAVNHHESRLNIESTVGKGTRFSFVIPERLIAKNSD
modifications: Fusion protein
Q: With B8 as the molecule, how does the “Mg^2+ signaling (β-galactosidase activity)” value [4] read?
A: Its value is “increase in Mg^2+ signaling”.
